{
  "source": "patent US20080260713",
  "proteins": {"B1": {"name": "recombinant human neukinase, His-tagged (protein)", "chain": "MSGTSKESLGHGGLPGLGKTCLTTMDTKLNMLNEKVDQLLHFQEDVTEKLQSMCRDMGHLERGLHRLEASRAPGPGGADGVPHIDTQAGWPEVLELVRAMQQDAAQHGARLEALFRMVAAVDRAIALVGATFQKSKVADFLMQGRVPWRRGSPGDSPEENKERVEEEGGKPKHVLSTSGLQSDAREPGEESQKADVLEGTAERLPPIRASGLGADPAQAVVSPGQGDGVPGPAQAFPGHLPLPTKVEAKAPETPSENLRTGLELAPAPGRVNVVSPSLEVAPGAGQGASSSRPDPEPLEEGTRLTPGPGPQCPGPPGLPAQARATHSGGETPPRISIHIQEMDTPGEMLMTGRGSLGPTLTTEAPAAAQPGKQGPPGTGRCLQAPGTEPGEQTPEGARELSPLQESSSPGGVKAEEEQRAGAEPGTRPSLARSDDNDHEVGALGLQQGKSPGAGNPEPEQDCAARAPVRAEAVRRMPPGAEAGSVVLDDSPAPPAPFEHRVVSVKETSISAGYEVCQHEVLGGGRFGQVHRCTEKSTGLPLAAKIIKVKSAKDREDVKNEINIMNQLSHVNLIQLYDAFESKHSCTLVMEYVDGGELFDRITDEKYHLTELDVVLFTRQICEGVHYLHQHYILHLDLKPENILCVNQTGHQIKIIDFGLARRYKPREKLKVNFGTPEFLAPEVVNYEFVSFPTDMWSVGVITYMLLSGLSPFLGETDAETMNFIVNCSWDFDADTFEGLSEEAKDFVSRLLVKEKSCRMSATQCLKHEWLNNLPAKASRSKTRLKSQLLLQKYIAQRKWKKHFYVVTAANRLRKFPTSP"}},
  "molecular_target": "T1, human regulatory myosin light chain, his-tagged",
  "T1 chain": "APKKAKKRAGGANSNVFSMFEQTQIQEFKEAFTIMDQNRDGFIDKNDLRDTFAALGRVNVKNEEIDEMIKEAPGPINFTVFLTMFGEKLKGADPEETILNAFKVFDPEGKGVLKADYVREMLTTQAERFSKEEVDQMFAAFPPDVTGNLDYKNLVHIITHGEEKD",
  "data": [
    {"protein": "B1", "values": [
      {"measurement": "rate of decrease of NADH absorbance at 340 nm (PK/LDH-coupled assay; 90 uM RLC, 1 uM CaM, 0.3 uM CaCl2, 100 nM neukinase)", "result": "ΔOD/min/nmol nukinase=0.0152/min/nmol neukinase"}
    ]}
  ]
}
